Assays:
Aβ(1-40) = Aβ(1-40) (UniProt P05067)
Aβ(1-42) = Aβ(1-42) (UniProt P05067)

Sequence of MMP2 (P08253 110-660): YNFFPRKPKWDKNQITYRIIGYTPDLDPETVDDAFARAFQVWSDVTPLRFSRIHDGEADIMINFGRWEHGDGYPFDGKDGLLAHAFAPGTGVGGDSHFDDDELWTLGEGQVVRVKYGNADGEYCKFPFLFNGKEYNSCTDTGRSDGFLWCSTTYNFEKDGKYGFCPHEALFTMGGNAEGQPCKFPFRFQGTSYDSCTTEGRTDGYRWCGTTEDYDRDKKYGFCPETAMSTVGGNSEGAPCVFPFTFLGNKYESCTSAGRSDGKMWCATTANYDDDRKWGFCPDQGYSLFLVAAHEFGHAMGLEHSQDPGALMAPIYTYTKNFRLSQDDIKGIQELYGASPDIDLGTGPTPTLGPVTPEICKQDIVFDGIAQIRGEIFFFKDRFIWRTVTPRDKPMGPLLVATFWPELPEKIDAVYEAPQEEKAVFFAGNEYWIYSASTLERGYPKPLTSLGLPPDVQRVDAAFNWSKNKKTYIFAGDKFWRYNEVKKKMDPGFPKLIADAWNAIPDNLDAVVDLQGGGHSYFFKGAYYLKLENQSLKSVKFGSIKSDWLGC

Row | Substance | stated: cleaves; Aβ cleavage assay, intact Aβ by ELISA (% untreated) (Aβ(1-40)) | stated: cleaves; Aβ cleavage assay, intact Aβ by ELISA (% untreated) (Aβ(1-42))
1 | ECE1 | near 100 % up to about 10 nM, falls to about 30 % at the highest concentration (about 1000 nM), no lower plateau | near 100 % up to about 10 nM, falls only to about 60 % at the highest concentration (about 1000 nM), no lower plateau
2 | MTSP1 | about 100 % up to about 30 nM, about 70 % near 100 nM, about 35 % near 300 nM, about 13 % at the highest concentration (about 1000 nM), no lower plateau | about 100 % up to about 10 nM, about 70 % near 100 nM, about 47 % near 300 nM, about 20 % at the highest concentration (about 1000 nM), no lower plateau
3 | NEP2 | stays near 100 % up to about 10 nM, about 60 % near 30 nM, about 25 % near 100 nM, about 0 % from about 300 nM | stays near 90 % up to about 10 nM, about 60 % near 30 nM, about 35 % near 100 nM, about 0 % at the highest concentration (about 1000 nM)
4 | MMP2 | about 105 % up to about 30 nM, about 45 % near 100 nM, about 0 % from about 300 nM | drifts from about 90 % to about 65 % between 0.01 and 30 nM (no flat upper plateau), about 40 % near 100 nM, about 0 % from about 300 nM
5 | MMP9 | about 100 % up to about 30 nM, about 80 % near 100 nM, about 40 % near 300 nM, about 10 % at the highest concentration (about 1000 nM), no lower plateau | about 80 % up to about 30 nM, about 60 % near 100 nM, about 35 % near 300 nM, below 10 % at the highest concentration (about 1000 nM), no lower plateau

— US20260183373
